# Measurements from US20040176573A1.
# Where two headings read alike, the source gives them in different places.
# Assays:
# HLA-A2 (human) [1] = target: HLA-A2 (human)
# HLA-A2 (human) [2] = target: HLA-A2 (human); remark: listed apart in the source
substance,measurement,setting,value
HIV-1 pol476-484 (peptide; other documents disagree on this pair),C50,HLA-A2 (human) [1],0.7 µM
same,C50,HLA-A2 (human) [2],0.2 µM
